For this assay, the target named is N-terminal EGFP fusion to zebrafish P2X4 crystallized construct (EGFP-ΔP2X4-A) (Danio rerio) (UniProt F8W463). Description: SEC.

For “N-terminal EGFP fusion to zebrafish P2X4 crystallized construct (EGFP-ΔP2X4-A) (from UniProt F8W463 1-389) (receptor)”, the stoichiometry N is 3.

The record behind these values is paper PMC3441139.
